The data set in a line: label from the status in PepcDB records.
In the case of “QEYILALADVPSSPYGVKIIELSQTTAKVSFNKPDSHGGVPIHHYQVDVKEVASEIWKIVRSHGVQTMVVLNNLEPNTTYEIRVAAVNGKGQGDYSKIEIFQTLPV”, the protein production result is “not failed”.
With “QGKLLELVTFVPTEYADAVRQALWQAGAGRLGHYDCCSFSHAGTGTFRAAEGANPFVGAISELHHEAEERISLVLPAYRQGTVLQALHAAHPYELPAVSLIPLANDHPSAGGGIVGDLPSPISEREMLLHIKEVFGLKVLSHSAWRERPLRRMAICGGSGAFMWRRAAQEGADLFLTGEAKYNDFFDAGEHLLLVTIGHYESEEVANELFMRIISQKFPTFATHKSSVATNPVNYL” the entry was “failed”.
Regarding “QGYQVTKLYVMDRDGTNARLLTEGFDRDVQNPTFTADGEHIVFRYVDEGSTKIGRVALDGGRRVVAEHVGGTSIGRPYTSGSFSLASNGRVAFTHATPQRPADVAVAQAGREAQVLTALNDDLFGQVDLGSVEQITYESSHDGRTIEGWIVTPPGFDASQEYPLVLEIHGGPFASYGPYFSAEVQLYAAAGYVVLYTNPRGSTSYGQDFGNAIHHDYPGHDYDDLMSGVDAVLERGYVDADRLYVTGGSGGGVLTSWIVGHTDRFRAAVAAKPVINWYSWALTADMYPYGVKYWFPGLPWNHEEHYMDRSPLSYVDNVTTPTMLLTGANDYRTPMSESEQFYQALKLREVETALVRVPGASHSIAARPSHLAAKAAHVLEWFRRHGGPTPEQ”, the protein production result is given as “failed”.
In the case of “QIPAERDREPSKLKRSYSSPDITQAIQEEEKRKPTVTPTVNRENKPTCYPKAEISRLSASQIRNLNPVFGGSGPALTGLRNLGNTCYMNSILQCLCNAPHLADYFNRNCYQDDINRSNLLGHKGEVAEEFGIIMKALWTGQYRYISPKDFKITIGKINDQFAGYSQQDSQELLLFLMDGLHEDLNKADN”, the protein production entry is “failed”.
With “QISTPVIRVWDGILALPIIGTLDSSRTQVVMESLLQEIVDTGSSIAILDISGVPAVDSLVAQHLIKTVSATRLMGAECIISGIRPEIAQTVVHLGIDLSTIITKATLASALKTA” the entry was “failed”.
The entry for “QKRPLIMIGGSSSTRTDFDDIVRSLNEQQHHPLITLTVKANQKLAFKEKRVENTNLNDALIVIFFEDSTDSTENIMTQTNGLAKAIRYLQRHQHLTTANALGYSNGGLIWSRYLAGLSSSKPLAVHDLMLIGTPFLGTDAAH” is “failed”.
The entry for “QLGGDMKTIAIADRTGEYEQLFKENDEFRFVHAEKTAEEYRKMGADKSGIDAVLEIRQDLLEDPNAVAIYGYKQLPASVSNHISRILSDYLSDKKIASYNIPDIKQILADSKIELSVHTYKWSEDGTNERTSGELASGIS” is “not failed”; for “QLIDIGVNLTNSSFHDQQAAIVERALEAGVTQMLLTGTSLAVSEQALELCQQLDASGAHLFATAGVHPHDAKAWDTDSERQLRLLLSEPRVRAVGECGLDFNRDFSPRPLQEKALEAQLTLAAQLRLPVFLHERDASERLLAILKDYRDHLTGAVVHCFTGEREALFAYLDLDLHIGITGWICDERRGTHLHPLVGNIPEGRLMLESDAPYLLPRSLRPKPKSGRNEPAFLPEVLREVALHRGESAEHTAAHTTATARDFFQLP” it is “not failed”.
In the case of “QQAIADQLLEMILQSQDLHNAYRLVVEGLQRGLGVDRVLLVQNAVFPNRQSRLVAQAIAPARDIMLLDEPCADCRWLHLLGQLPHYGLWTVWEGEGEFVQLDPVQGEFCRTLGIKSLLHLPLVINQRHWGVLSLQYLHQARPWPLEDQQFAQRIAHLFCLGLMKTELWIHCQNHKNALQTVVAEGQ”, the protein production result is listed as “failed”.
With “QQNIVLSIQDRLQQLPKSERKIAEYILKNTETVISMNAQELAKQAGSSPAAIIRFCHSMDVNGFTELKLLLSANLGQMKQQMYTEVTKGESTADIKQKLQARFVHVVERSGQTLE” the entry was “not failed”; with “QRLSNSIINSLASGEGVVEALRTMKNDGVISGMFKLEQGKFNRSIENLVRTEYSHFAVEGVRKSLKDIGVKQTQSWSAEDERVCSICGGRHGKEIKDDWHPPYHGRCRCTEI”, “failed”; with “QSQGGGSVTKKRKLESSESRSSFSQHARTSGRVAVEEVDEEGKFVRLRNKSNEDQSMGNWQIRRQNGDDPLMTYRFPPKFTLKAGQVVTIWASGAGATHSPPTDLVWKAQNTWGCGSSLRTALINSTGEEVAMRKLVR”, “not failed”.
The entry for “QTLLQANPDPVLVADAETGKIVEANAAATGLLGRPREEIIGAHQTDLHPSGRAEAYASLFRRSLDEDGPMRALPDGTQIEVVTDEGTTVPVEVNATTVDLPDGRVVYGVFRDVSE” is “failed”; for “QTPVYLDTSKPIEERVKDALSRMTLEEKVKMTHAQSKFSSPGVPRLGIPEVWATDGPHGIRPEVLWDEWDQAGWTNDSCIAYPALTCLSATWNPEMSYLYGKSIGEEARYRKKDILLGPGVNIYRTPLNGRNFEYMGEDPYLSSMMVVPYIKGVQENGVAACVKHYALNNQEFNRHTTNVHLSDRALYEIYLPAFKAAVQEGGAWAIMGAYNLYSFSEDTDSGKLYKTQHACHNKRLLQDILRKEWGFDGVVVSDWGGVHDTFQAISNGLDMEFGSWTNGLSAGTRNAYDNYYLAHPYLKLIQDGTVGTKELDEKVSNILRLIFRTSMNPH” it is “failed”; for “QTQALFMNTRRAVFKERALRQALGEMFDFEWTNRALFSNSYLRSRSYYPNSEFAASGVPEGQEWLYLSPYRKQLPAQLFKQPFSLPTTEGRGIPRETLRHALGLLADAGWKLSGDRLLNKKGEPLRFEILLVNPSLERILQPYRENLASIGIDARLRTVDRAQYKQRLDQFDYDMILMTLPQTLSPGLEQWQYFHSSQVKVKGSKNYAGIANPVVDAMLNRLLGAHSRDEQVAAARALDRTLLWQYYSIPNWYLN” it is “failed”.
The entry for “QTVNHELQSKVSELSEANNDMKNLLNSTDIATLFLDDSLNIRRFTTRTASIIKLIASDIGRPITDIVTDLHYPALADDAQEVLRTLIFREKQVSANNDRWFSVKIMPYRTQENKIVGLVITFSDITTSKKLEA” is “failed”.
For the sequence “QVGIYRTRTCDGLILNANQRFADLFGFDSPQEIIGIEHTIGYWVNPSDRQQGIEVMKRDGEVRSYEAQMRKRDGTVFWGLFSSYLNAGDDYIEGVIADISDVYDELRLRKQAEVALQASEAELRSLFSAIPDPLCVVTAQ”, the protein production result is on record as “failed”.
The entry for “QVKRQTRRVASATYMVSLLDSQIDSPATLFIDEQALEAAKRRSYQRGVLEGSEMSRVFSWMRPNDLIWTYWINNYLLGKSPPPFDILYWNNDTTRLPAALHGDLLDFFKHNPLSHAGGLEVCGTPIDLQKVTVDSFSVAGINDHITPWDSVYRSTLLLGGDRRFVLANSGHVQSILNP” is “not failed”; for “QVYKAKFGTPNRGWVIIVHGLGEHSGRYSKLVSMLVNEGYAVYTFDWPGHGKSPGKRGHTSVEEAMEIIDFIIEEINDKPFLFGHSLGGLTVIRYAETRPEKIRGVIASSPALAKSPKTPSFMVALAKILGVLLPSLTLSNGIDPNLLSRNPDAVKRYIEDPLVHDRISAKLGRSIFKNMDLAHREAHKIKVPVLLLVGTGDVITPPEGARKLYGEIKVEDKEIVEFEGAYHEIFEDPEWGEEFHKKIVEWIKKH” it is “not failed”; for “RDIGKESLEKAPEVELVNSAEEGNAVVLDIRSPDEEDESPLEIVGVEVKHLPFYKLATQFGDLDQSKTYLLYCSRGVMSRLQALYLQEQGFNNVKVYR” it is “failed”.
With “RDRSTIARIQFRLPDGSSFTNQFPSDAPLEEARQFAAQTVGNTYGNFSLATMFPRREFTREDYKRRLLDLELAPSASVVLLPAGRPATSIVHSSSGDILMID” the entry was “not failed”.
The entry for “RERLLSEAKATLQNYVAIAMTAIKPLYDAAAPGDEAARANAIKLLSAVSYGKDGYLFGYDSQVVRIFRSTSPDGLGKSFVDARDANGVYINR” is “failed”.
As to “RERLRFERDHFRILVDVTNTVISKLELDVLAAEVSKEIHRFFNIDYISLAICGTHNDKNKLNVFSTRYQSGQAVQHQQTWVDMTGTLAGQVLHSRELLLVNLADIALLAPDDKQLASMLDAGLQAVCLLPLFFGHKMLGVLKLAQCQSDIFTGSNLKLLRQIAARIAIAVDNALAYNEITRLKDS”, the protein production entry is on record as “failed”.
The entry for “RFEGGDHDLIPNNDAQNAAVNRALNAEDFALVHGPPGTGKTYTIATLVQAFVARGDRVLVSAFTNRAVDNALDALRQQGHEDIVRVGTETGVRADMQDLRLDRSGDPGERAAALRSAPVVAATTATCGSRILRELEFDVVLVDEASQLTEPDTLAAINRGARFVLVGDHEQ” is “failed”; for “RIVLRREFEGNGILDGIGKKIEEGDYDIVEYNSDKWYQIHKYYSGIDNSLKGVYINISTPPELLRGKIRYLDLEIDIAIRDSEIALLDEDELNKKSIYMPSS” it is “failed”; for “RNRRREEAARHYLECVLDGLTTGVVVFDEKGRLKTFNKAAEQILGMPLAPLWGSSRHGWHGVSAQQSLLAEVFAAIGAAAGTDKPVQVEYAAPDDAKILLGKATVLPEDNGNGVVMVIDDIT” it is “failed”.
On to “RNVWVVAELDEQGVSEASLQMLTPARRIADKLGESVVGVIAGPPGSSQLAVEMVERGADEVIVVEHERLSEYYPDVVGSVIVELSLKYKPSVILFAATARGREMAPYVANTLKTGITADCTDFDVDPKTRDVLLIRPPFSAIMLAYIRTPFRRPQIGTARPNVFPLPERQPGRQGRIVREEVEPPEPMARLVNRV”, for which the protein production result is “not failed”.
The entry for “RPQGLHLELETRLQKMYGIRQVIVVEATEPDDEESIKQAIGSAAAHYLETSLSAQDHIGISSWSSTIRAMVSHMHPQPGKQSAQEVVQLLGGVGNKGAFEATLLTQRLATLLNCPAFLLPSQSIEQSVESKQRIVEMEEVKEVLHRFDSITLAIVGIGELEPSQLLRNSGNYYTEDMLRVLAERGAVGDICLRYFDAQGKPVLEEDEEFVVSMGLGKLRSINRVLGLAGGVRKVQAIKGALLGGYLDVLITDVGTARGLGG” is “not failed”; for “RRENHQTIQEFLERIHLQEYTSTLLLNGYETLDDLKDIKESHLIELNIADPEDRARLLSAAESLL” it is “not failed”.
The entry for “RSFGLIIPDLENTSYARLAKLIEQNSRKAGYQILIGCSDDDPETEKKVAEALISRRIDALFVASGMPSANEYYLKLQNSGTPVIALDRPMDDEHFCCVISEDFDAAFELTESVLSPEIKTIGLIGALQDLQVSKERELGFRSACQKDDTAMTVGYGLHFSREEGKKVLDKWVQADSLPDAIVTTSYTLLEGVLDVMLEKPELMSQVRLATFGDNRLLDFLPVKINSLPQQFELIADSAMELALNASAKRYKPGVELIPRKIVKRQ” is “failed”; for “RSKTVILAKNLPAGTLAAEIQETFSRFGSLGRVLLPEGGITAIVEFLEPLEARKAFRHLAYSKFHHVPLYLEWAPIGVFGAAPQKKDSQHEQPAEKAE” it is “not failed”.
With “SAQDEEDRVLIHFNVRDIKIGPECHDVQPPEGRSRDGLLTVNLREGGRLHLCAETKDDALAWKTALLEANSTPVRVYSPYQDYYEVVPPNAHEATYVRSYYGPPYAGPGVTHVIVREDPCYSAGAPLAMGMLAGAATGAALGSLMWSPCWF” the entry was “failed”; with “SAQSLSSEPDILFLDGWQLRYQAFAARADDPRPPVLLLGGAFQSFRSFTGEVSELLAEHPVILLDLPSQGGNLQLAAELSLEDLADLIAAFAEQLGLPPLMPIGLSYGSALAALFAARHPRRCARLLLAGITAFGRPGARLLLEEALARLDEGDQSAFAHGVLTGLINPLQLERTGVSPVFRKAMLRQLQRLTAAEIERYRQNSRRLLAFGGFERHPTCPTLVLAGEYDHFTQPWEHAVFAHACGNAEFALIHDADHLAQFERREACARLYGPFLRG”, “failed”.

For the origin of these results see a protein production outcome set (Wang et al. 2014).
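Note: failed if final PepcDB status was selected cloned or expressed and not failed if soluble or beyond.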
